Values quoted from earlier work, collected in PMC8083718.

Biological target: ACE2 (Homo sapiens) (UniProt Q9BYF1)
Sequence (Q9BYF1 18-740): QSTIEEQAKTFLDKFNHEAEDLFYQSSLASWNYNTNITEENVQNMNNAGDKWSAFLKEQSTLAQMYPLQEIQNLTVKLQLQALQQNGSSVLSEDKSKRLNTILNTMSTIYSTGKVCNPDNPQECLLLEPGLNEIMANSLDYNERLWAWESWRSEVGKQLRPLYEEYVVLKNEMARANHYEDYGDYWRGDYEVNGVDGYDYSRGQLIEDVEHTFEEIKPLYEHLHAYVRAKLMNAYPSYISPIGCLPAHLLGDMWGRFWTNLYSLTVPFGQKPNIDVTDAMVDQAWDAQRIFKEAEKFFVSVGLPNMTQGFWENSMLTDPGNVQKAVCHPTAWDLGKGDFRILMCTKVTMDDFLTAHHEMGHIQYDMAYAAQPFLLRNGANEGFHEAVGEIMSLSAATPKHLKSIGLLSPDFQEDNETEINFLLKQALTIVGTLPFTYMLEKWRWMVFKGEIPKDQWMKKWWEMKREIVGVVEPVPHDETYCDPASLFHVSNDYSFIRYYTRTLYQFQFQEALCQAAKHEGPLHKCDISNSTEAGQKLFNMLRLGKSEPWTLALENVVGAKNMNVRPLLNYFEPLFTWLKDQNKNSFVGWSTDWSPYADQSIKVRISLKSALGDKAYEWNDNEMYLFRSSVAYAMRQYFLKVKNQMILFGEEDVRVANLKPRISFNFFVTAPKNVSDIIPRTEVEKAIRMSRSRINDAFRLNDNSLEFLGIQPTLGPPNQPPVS

In the case of spike protein (from UniProt P59594), the Kd is given as 0.12 nM.
